The source of these data is patent publication US8415106B2, “Cell-based screen for agents useful for reducing neuronal demyelination or promoting neuronal remyelination” (Myelin Repair Foundation, Inc., priority 2005, dated 2013).

The test concerns rat oligodendrocytes. In words: IFN-γ-induced apoptosis in cultured rat oligodendrocytes (TUNEL/CNP, caspase-3 activity). The class given is cell-based. How it is done:
To test whether apoptosis of oligodendrocytes that is induced by INF-γ affects ER stress, the effect on the morphology, the degree of apoptosis and the expression of ER markers was studied in a culture of oligodendrocyte precursor cells (OPC). Oligodendrocyte progenitors were cultured from neonatal rat brains (Baerwald, et al. (1998) J. Neurosci. Res. 52: 230-239). A mixed glial culture was grown in flasks in medium containing 10% fetal bovine serum (FBS), and when the astrocyte layer became confluent (10-14 days), oligodendrocyte progenitors were separated from astrocytes and microglia using an orbital shaker. Cells, greater than 95% of which were A2B5 positive, GFAP negative and CD11b negative, were cultured in 0.5% FBS containing medium, which also contained PDGF (10 ng/ml) and FGF (5 ng/ml) (both from R&D Systems, Minneapolis, Minn.). Then cells were switched to 0.5% FBS medium without PDGF and FGF for differentiation. […]
The level of apoptosis of the OPC cells was determined by double staining CNP (1:200; Sternberger Monoclonals, Lutherville, Md.) and TUNEL using the ApopTag Kit (Serologicals Corp., Norcross, Calif.) and following the manufacturer's instructions. Apoptosis was also evaluated by measuring the activity of caspase-3 in oligodendrocyte lysates using the Fluorimetric Caspase 3 Assay Kit (Sigma, St. Louis, Mo.), according to the manufacturer's instructions.

B1: IFN-γ: pleotropic cytokine secreted by activated T lymphocytes and natural killer cells; recombinant rat IFN-γ added to cultures or transgenically expressed in mouse CNS (protein, UniProt P01581 23-156, looked up)
Interferon gamma: QGTLIESLESLKNYFNSSSMDAMEGKSLLLDIWRNWQKDGNTKILESQIISFYLRLFEVLKDNQAISNNISVIESHLITNFFSNSKAKKDAFMSIAKFEVNNPQIQHKAVNELIRVIHQLSPESSLRKRKRSRC
For the molecule B1, the “caspase-3 activity in the cell lysates” value (70 U/ml IFN-γ) is on record as “markedly increased”. In addition, the “TUNEL and CNP double labeling (apoptosis)” value (70 U/ml IFN-γ for 48 h, oligodendrocytes differentiated 5 days) was “induced apoptosis in a significant number of oligodendrocytes”.
